Legend:
MakA^W243D = experiment: SEC
[1] = molecular target: Motility associated killing factor A (MakA), wild type; experiment: SEC

Substance	percent oligomer (MakA^W243D)	percent monomer [1]	percent oligomer [1]
MakA^W243D (natural protein)	100%		
Motility associated killing factor A (MakA), wild type (natural protein)		80%	20%
